US8034783B2, “Prodomain modulators of ADAM 10” (Biozyme, Inc., priority 2006, dated 2011)
Non-standard residues stand in square brackets, D forms with d. Primed or numbered codes have the meaning given here. *: point of attachment. Fluorescein = fluorescein label attached to the cysteine side chain; Dabcyl′ = CN(C)c1ccc(/N=N/c2ccc(C(=O)*)cc2)cc1; hPhe = N[C@@H](CCc1ccccc1)C(=O)O

Experiments:
ADAM 10 (human) Cat/Dis = biological target: T1, ADAM 10 (human) Cat/Dis (Homo sapiens, UniProt O14672); assay: Inhibition assay with ADAM10 catalytic/disintegrin construct, fluorescent substrate; type: biochemical
T1 construct: containing the catalytic/disintegrin domains; purchased R & D Systems (Minneapolis, Minn., USA)
T1 sequence (O14672 214-672 limits assumed): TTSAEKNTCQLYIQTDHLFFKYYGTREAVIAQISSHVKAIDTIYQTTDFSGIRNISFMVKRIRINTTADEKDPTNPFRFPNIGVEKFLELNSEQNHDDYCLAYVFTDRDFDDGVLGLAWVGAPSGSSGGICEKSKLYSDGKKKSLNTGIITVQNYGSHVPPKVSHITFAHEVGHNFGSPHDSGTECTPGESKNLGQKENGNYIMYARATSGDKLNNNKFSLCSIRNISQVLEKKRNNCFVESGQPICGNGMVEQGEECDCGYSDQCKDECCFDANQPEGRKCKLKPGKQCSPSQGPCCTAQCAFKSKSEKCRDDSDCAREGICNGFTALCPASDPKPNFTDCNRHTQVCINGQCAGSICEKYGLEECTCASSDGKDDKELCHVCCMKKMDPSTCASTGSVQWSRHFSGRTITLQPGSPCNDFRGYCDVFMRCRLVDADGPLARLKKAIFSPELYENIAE
Method: (§1) Inhibition assays with TACE and ADAM 10. Activity of TACE catalytic/disintegrin, TACE catalytic, or ADAM10 catalytic/disintegrin constructs was monitored at 3 minute intervals using the fluorescent substrate, Dabcyl-LAQAHomoPheRSC(Fluorescein)-NH2 (SEQ ID NO 17) with excitation 485 nm and emission 530 nm. The substrate was diluted from a 10 mM stock in DMSO to 10 μM in assay buffer containing 20 mM Tris, pH 8.0, and 0.0006% Brij-35. Reactions were run in a 96-well black-coated plate with either ADAM10 prodomain (10 nM-1.0 μM) alone or with enzyme. Concentrations of enzyme ranged from 0.5-2.0 nM for TACE and 5-15 nM for ADAM10. For assays with TACE and ADAM8 prodomain, the range of concentrations varied from 1-4.7 μM.
(§2) Calculation of inhibition constants. The amount of activity was calculated by subtracting the ADAM 10 prodomain control from the ADAM 10 prodomain with enzyme. All inhibition assays were performed at room temperature and the data fit to the following equation using Sigma Plot software:
(§3) [formula] where If is fractional inhibition, I is the inhibitor concentration and Ki is the inhibition constant.
Wild type ADAM 10 prodomain (23-213) was tested to determine the mode of inhibition of ADAM 10 protein. ADAM 10 protein was diluted 1:100 in buffer 25 mM Tris pH 8, 0.0006% Brij-35 and then 10 μl was added to 88 μl of substrate (20-100 μM), Dabcyl-LAQAHomoPheRSC(Fluorescein)-NH2 with excitation 485 nm and emission 530 nm. Prodomain, 2 μl, in 25 mM Tris, pH 8, 100 mM NaCl, 10% glycerol, 0.1% mercaptoethanol, and 50 μM CaCl2 was added to substrate before addition of enzyme. The final concentration of prodomain ranged from 17-170 nM. The fluorescence vs time was plotted, and slopes were taken from straight line fits of initial velocities. The reciprocal of the velocities was plotted vs the reciprocal of substrate squared since the normal Lineweaver Burke plot gave curved lines. The initial velocities vs substrate concentrations were fit as a family of curves to several allosteric models.

TACE (human) Cat = biological target: T2, TACE (human) Cat (Homo sapiens, UniProt P78536); assay: Inhibition assay with TACE catalytic domain, fluorescent substrate; type: biochemical; conditions: at 3.5 μM
T2 construct: TACE catalytic domain, Marcos Milla, University of Pennsylvania; donated by Marcos Milla, University of Pennsylvania
T2 sequence (P78536 223-474 limits assumed): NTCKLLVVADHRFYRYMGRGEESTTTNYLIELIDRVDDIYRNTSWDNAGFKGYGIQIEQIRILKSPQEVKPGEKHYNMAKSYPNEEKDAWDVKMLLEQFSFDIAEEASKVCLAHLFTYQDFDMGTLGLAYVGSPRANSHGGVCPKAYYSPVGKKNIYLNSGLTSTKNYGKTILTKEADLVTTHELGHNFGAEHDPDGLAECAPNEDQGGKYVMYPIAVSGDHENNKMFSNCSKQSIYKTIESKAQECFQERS
Method: as §1, §2, §3

[1] = biological target: T3, ADAM 8 (mouse) catalytic domain (Mus musculus, UniProt Q05910); assay: Inhibition assay with ADAM 8 catalytic domain; type: biochemical; conditions: at 1.7 μM
T3 construct: The ADAM 8 catalytic domain was expressed and purified from E. coli as described (22); made in house; host or cells: E. coli
T3 sequence (Q05910 196-395 limits assumed): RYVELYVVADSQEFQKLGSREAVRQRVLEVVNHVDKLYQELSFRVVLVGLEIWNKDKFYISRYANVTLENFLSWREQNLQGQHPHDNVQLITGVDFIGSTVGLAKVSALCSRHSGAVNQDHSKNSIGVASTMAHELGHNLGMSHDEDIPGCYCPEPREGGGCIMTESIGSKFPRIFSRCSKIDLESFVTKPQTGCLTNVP
Method: Inhibition assays with ADAM 8. The ADAM 8 catalytic domain was expressed and purified from E. coli as described (22). A substrate based on the L-selectin cleavage site, Dnp-INorIeuQKLDKSFSMIKE-NH2 (SEQ ID NO 20), was used to monitor enzyme activity with a fluorescamine assay. From a concentrated 50 mM solution in DMSO, the substrate was diluted 1:500 in 25 mM HEPES, pH 8.0, 0.0006% Brij-35. To 100 μl of diluted substrate was added either 5 μl of buffer (Tris, pH 8.0, 150 mM KCl) or 5 μl of ADAM10 prodomain (1-10 μM). Zero time points were taken by diluting 12.5 μl of the reaction mixture into 100 μl of fluorescamine buffer (50 mM HEPES, pH 8.0, 0.2 M NaCl, 0.01 M CaCl2, 0.01% Brij-35) in a 96-well black-coated plate. Before measuring fluorescence, 3 μl of a 1% solution of fluorescamine in DMSO was added to each well. The plate was allowed to incubate for 10 min in the dark before measuring fluorescence (excitation wavelength at 390 nm, emission wavelength at 485 nm). For assays with TACE and ADAM8 prodomains, a fluorescent substrate was used to monitor activity at concentrations of prodomains ranging from 1-4.7 μM.
Calculation of inhibition constants. The amount of activity was calculated by subtracting the ADAM 10 prodomain control from the ADAM 10 prodomain with enzyme. […]

TACE (human) Cat/Dis = biological target: T4, TACE (human) Cat/Dis (Homo sapiens, UniProt P78536); assay: Inhibition assay with TACE catalytic/disintegrin construct, fluorescent substrate; type: biochemical
T4 construct: containing the catalytic/disintegrin domains; purchased R & D Systems (Minneapolis, Minn., USA)
T4 sequence (P78536 215-671 limits assumed): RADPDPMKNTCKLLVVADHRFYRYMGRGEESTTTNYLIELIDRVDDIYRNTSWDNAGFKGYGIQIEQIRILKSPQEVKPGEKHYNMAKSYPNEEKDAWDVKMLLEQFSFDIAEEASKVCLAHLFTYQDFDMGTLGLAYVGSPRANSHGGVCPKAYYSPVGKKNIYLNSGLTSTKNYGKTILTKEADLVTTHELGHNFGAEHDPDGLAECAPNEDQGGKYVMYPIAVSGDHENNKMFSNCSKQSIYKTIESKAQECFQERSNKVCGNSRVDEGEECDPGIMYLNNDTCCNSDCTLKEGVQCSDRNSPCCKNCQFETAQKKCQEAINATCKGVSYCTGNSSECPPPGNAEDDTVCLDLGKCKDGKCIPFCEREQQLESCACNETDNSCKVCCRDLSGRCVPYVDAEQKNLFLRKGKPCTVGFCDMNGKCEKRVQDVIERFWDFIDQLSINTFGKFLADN
Method: as §1, §2, §3

CD23 shedding in B cells = assay: CD23 shedding in B cells, flow cytometry; type: cell-based; conditions: 1-5 μM, 12 hr
Method: The CD23 sheddase activity of ADAM 10 protein was further tested in a B-cell assay. B-cells were cultured for 12 hr in the presence or absence of IL-4 (100 ng/ml), wild type C-terminal His tagged ADAM 10 (23-213) (1-5 μM) or match diluent control (25 mM Tris-HCl pH 8, 100 mM NaCl, 10% glycerol, 0.1% β-mercaptoethanol). Cells were stained for expression of surface antigens following washing with 1% BSA/PBS. Cells were incubated for 30 minutes at 4° C. in the dark with fluorochrome-conjugated mAbs: APC-CD19 (CALTAG, Burlingame, Calif.), CD23-PE, mlgG1-PE (BD Biosciences) before washing to remove unbound mAb. Cells were resuspended in PBS and immediately analyzed with the use of the FACS Calibur (BD Biosciences). The software program FlowJo (Ashland, Oreg.) was used to analyze data generated by flow cytometry.

MMP 1, 2, 3, 9, 13, 14 = assay: Inhibition assays with MMPs; type: biochemical; conditions: 3 μM prodomain
Method: Inhibition assays with MMPs. The fluorescent substrate Dabcyl-GPLGMRGC (Fluorescein)-NH2 (SEQ ID NO 18) (10 μM) in assay buffer containing 50 mM Tris, pH 7.5, 150 mM NaCl, 2 mM CaCl2, 5 μM ZnSO4, and 0.01% Brij-35 was used to monitor enzyme activities. MMPs 1, 2, 3, 9, 13, and 14 (0.1-20 nM) were incubated with substrate in the absence or presence of prodomain (3-30 μM). Fluorescence intensities were measured every 3-5 minutes at an emission wavelength of 530 nm (excitation 485 nm).
as §2, §3

Dabcyl-LAQAHomoPheRSC(Fluorescein)-NH2 ({Dabcyl′}-LAQA[hPhe]RSC(Fluorescein)-NH2) [fluorescent substrate for TACE and ADAM10 assays, reference compound]
binding constant, Ks for substrate (ADAM 10 (human) Cat/Dis; fit to pure competitive allosteric model): 16 ± 4.6 µM

B1: Pro ADAM 17 (mouse): prodomain of mouse TACE (ADAM 17), residues 18-214, His-tagged, expressed in E. coli (protein)
chain: PRPPEEAGSGSHPRLEKLDSLLSDYDILSLANIQQHSIRKRDLQSATHLETLLTFSALKRHFKLYLTSSTERFSQNLRVVVVDGKEESEYSVKWQNFFSGHVVGEPDSRVLAHIGDDDVTVRINTDGAEYNVEPLWRFVNDTKDKRMLVYKSEDIKDFSRLQSPKVCGYLNADSEELLPKGLIDREPSEEFVRRVKR
modifications: left off: small tags and cut ends
notes: prodomain of mouse TACE (ADAM 17), residues 18-214, His-tagged, expressed in E. coli
inhibition of TACE (human) Cat (TACE (human) Cat): 37% | inhibition of ADAM 10 (human) Cat/Dis (ADAM 10 (human) Cat/Dis; at 3.5 μM): 11% at 3.5 μM | inhibition of ADAM 8 (mouse) Cat [1]: 17% at 1.7 μM | inhibition of TACE (human) Cat/Dis (TACE (human) Cat/Dis; at 3.5 μM): 0% | inhibition of respective enzyme (TACE) by its prodomain (TACE (human) Cat/Dis; micromolar concentrations): did not inhibit

B2: wt ProADAM 10 23-213 (C-terminal His tag): wild type mouse ADAM 10 prodomain, amino acids 23-213, C-terminal His tag, expressed in E. coli (protein)
chain: NPLNKYIRHYEGLSYNVDSLHQKHQRAKRAVSHEDQFLLLDFHAHGRQFNLRMKRDTSLFSDEFKVETSNKVPDYDTSHIYTGHIYGEEGSFSHGSVIDGRFEGFIKTRGGTFYIEPAERYIKDRILPFHSVIYHEDDINYPHKYGPQGGCADHSVFERMRKYQMTGVEEGARAHPEKHAASSGPELLRKKHHHHHH
inhibition of shedding in B cells stimulated with IL-4 (CD23 shedding in B cells; IL-4 100 ng/ml, FIG. 2D): able to inhibit shedding | inhibition of shedding in B cells (CD23 shedding in B cells; without IL-4, FIG. 2C): able to inhibit shedding | mode of inhibition of ADAM 10 protein (ADAM 10 (human) Cat/Dis; initial velocities fit to allosteric models): pure competitive | inhibition of matrix metalloproteinases 1, 2, 3, 9, 13 and 14 (MMP 1, 2, 3, 9, 13, 14): not inhibited

B3: wt ProADAM 10 23-213 (N-terminal His tag): wild type mouse ADAM 10 prodomain, amino acids 23-213, N-terminal His tag, expressed in E. coli (protein)
chain: NPLNKYIRHYEGLSYNVDSLHQKHQRAKRAVSHEDQFLLLDFHAHGRQFNLRMKRDTSLFSDEFKVETSNKVPDYDTSHIYTGHIYGEEGSFSHGSVIDGRFEGFIKTRGGTFYIEPAERYIKDRILPFHSVIYHEDDINYPHKYGPQGGCADHSVFERMRKYQMTGVEEGARAHPEKHAASSGPELLRKK
modifications: left off: small tags and cut ends
notes: wild type mouse ADAM 10 prodomain, amino acids 23-213, N-terminal His tag, expressed in E. coli
inhibition of matrix metalloproteinases 1, 2, 3, 9, 13 and 14 (MMP 1, 2, 3, 9, 13, 14): not inhibited
